The text below walks through data of patent US20050003401, “Pfu replication accessory factors and methods of use” (Stratagene, published 2005).

The target in data set [1] is T1, RFA (replication factor A) (Pyrococcus furiosus).
T1 chain: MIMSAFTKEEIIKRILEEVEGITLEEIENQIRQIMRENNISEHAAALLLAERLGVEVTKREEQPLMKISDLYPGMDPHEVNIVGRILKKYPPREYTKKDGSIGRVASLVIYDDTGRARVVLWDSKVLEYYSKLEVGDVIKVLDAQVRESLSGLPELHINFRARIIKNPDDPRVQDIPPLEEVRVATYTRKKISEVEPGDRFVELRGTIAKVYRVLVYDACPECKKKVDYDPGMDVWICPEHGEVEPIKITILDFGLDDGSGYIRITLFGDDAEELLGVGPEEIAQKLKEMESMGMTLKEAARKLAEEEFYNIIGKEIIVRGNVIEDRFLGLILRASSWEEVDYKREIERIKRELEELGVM
The data set is described as follows: EMSA; partial shift; 95 C 10 min then 72 C 2 min. The following applies: tags: N-terminal CBP. Here is the method: (§1) 50 ng of a 38-mer oligo was incubated with E. coli SSB (lane 1), water (lane 2), or P. furiosus RFA (lanes 3-7) in TE buffer (lanes 1-3), 1×cloned Pfu buffer (lane 4), 50 mM Tris pH 8.5, 25 mM KCl, 2 mM MgCl₂ (lane 5), 50 mM Tris pH 8.5, 25 mM KCl, 5 mM MgCl₂ (lane 6), or 50 mM Tris pH 8.5, 25 mM KCl, 2 mM ZnCl₂ (lane 7). Samples were incubated at 95° C. for 10 minutes, followed by 72° C. for 2 minutes prior to loading on a 4-20% acrylamide gradient gel in 1×TBE buffer. Bands were visualized by SYBR green staining and UV illumination.
(§2) To assess function, P. furiosus RFA was tested for single-stranded DNA binding activity in a gel shift assay (FIG. 18). […] The degree of migration of the oligo is related to the mass of the protein-DNA complex and the formation of protein multimers. E. coli SSB is known to form tetramers, but it is presently unknown whether P. furiosus RFA produces multimers as well.

Data set [2] deals with SSB (single-stranded DNA binding protein) (Escherichia coli, UniProt P0AGE0 P0AGE0:2-178). In words: EMSA; TE buffer; 95 C 10 min then 72 C 2 min. The following applies: tags: Stratagene Perfect Match; chain copies: 4. Here is the method: as §1, §2
SSB (single-stranded DNA binding protein), sequence (P0AGE0 2-178, one chain of several): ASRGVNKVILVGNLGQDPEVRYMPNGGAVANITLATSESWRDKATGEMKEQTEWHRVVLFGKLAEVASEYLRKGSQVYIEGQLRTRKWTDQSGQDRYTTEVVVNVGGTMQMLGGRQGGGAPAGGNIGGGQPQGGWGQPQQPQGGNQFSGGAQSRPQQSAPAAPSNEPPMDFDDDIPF

With GGTTTTCCCAGTCACGACGTTGTAAAACGACGGCCAGT (ssDNA) [38-mer oligo], the binding result in data set [1] and in data set [2] was “binds” in each case.
